B1: NCKAP1 (protein, UniProt Q9Y2A7 2-1128, looked up)
Nck-associated protein 1: SRSVLQPSQQKLAEKLTILNDRGVGMLTRLYNIKKACGDPKAKPSYLIDKNLESAVKFIVRKFPAVETRNNNQQLAQLQKEKSEILKNLALYYFTFVDVMEFKDHVCELLNTIDVCQVFFDITVNFDLTKNYLDLIITYTTLMILLSRIEERKAIIGLYNYAHEMTHGASDREYPRLGQMIVDYENPLKKMMEEFVPHSKSLSDALISLQMVYPRRNLSADQWRNAQLLSLISAPSTMLNPAQSDTMPCEYLSLDAMEKWIIFGFILCHGILNTDATALNLWKLALQSSSCLSLFRDEVFHIHKAAEDLFVNIRGYNKRINDIRECKEAAVSHAGSMHRERRKFLRSALKELATVLSDQPGLLGPKALFVFMALSFARDEIIWLLRHADNMPKKSADDFIDKHIAELIFYMEELRAHVRKYGPVMQRYYVQYLSGFDAVVLNELVQNLSVCPEDESIIMSSFVNTMTSLSVKQVEDGEVFDFRGMRLDWFRLQAYTSVSKASLGLADHRELGKMMNTIIFHTKMVDSLVEMLVETSDLSIFCFYSRAFEKMFQQCLELPSQSRYSIAFPLLCTHFMSCTHELCPEERHHIGDRSLSLCNMFLDEMAKQARNLITDICTEQCTLSDQLLPKHCAKTISQAVNKKSKKQTGKKGEPEREKPGVESMRKNRLVVTNLDKLHTALSELCFSINYVPNMVVWEHTFTPREYLTSHLEIRFTKSIVGMTMYNQATQEIAKPSELLTSVRAYMTVLQSIENYVQIDITRVFNNVLLQQTQHLDSHGEPTITSLYTNWYLETLLRQVSNGHIAYFPAMKAFVNLPTENELTFNAEEYSDISEMRSLSELLGPYGMKFLSESLMWHISSQVAELKKLVVENVDVLTQMRTSFDKPDQMAALFKRLSSVDSVLKRMTIIGVILSFRSLAQEALRDVLSYHIPFLVSSIEDFKDHIPRETDMKVAMNVYELSSAAGLPCEIDPALVVALSSQKSENISPEEEYKIACLLMVFVAVSLPTLASNVMSQYSPAIEGHCNNIHCLAKAINQIAAALFTIHKGSIEDRLKEFLALASSSLLKIGQETDKTTTRNRESVYLLLDMIVQESPFLTMDLLESCFPYVLLRNAYHAVYKQSVTSSA
B2: NUP160 (protein, UniProt Q12769 1-1436, looked up)
Nuclear pore complex protein …: MLHLSAAPPAPPPEVTATARPCLCSVGRRGDGGKMAAAGALERSFVELSGAERERPRHFREFTVCSIGTANAVAGAVKYSESAGGFYYVESGKLFSVTRNRFIHWKTSGDTLELMEESLDINLLNNAIRLKFQNCSVLPGGVYVSETQNRVIILMLTNQTVHRLLLPHPSRMYRSELVVDSQMQSIFTDIGKVDFTDPCNYQLIPAVPGISPNSTASTAWLSSDGEALFALPCASGGIFVLKLPPYDIPGMVSVVELKQSSVMQRLLTGWMPTAIRGDQSPSDRPLSLAVHCVEHDAFIFALCQDHKLRMWSYKEQMCLMVADMLEYVPVKKDLRLTAGTGHKLRLAYSPTMGLYLGIYMHAPKRGQFCIFQLVSTESNRYSLDHISSLFTSQETLIDFALTSTDIWALWHDAENQTVVKYINFEHNVAGQWNPVFMQPLPEEEIVIRDDQDPREMYLQSLFTPGQFTNEALCKALQIFCRGTERNLDLSWSELKKEVTLAVENELQGSVTEYEFSQEEFRNLQQEFWCKFYACCLQYQEALSHPLALHLNPHTNMVCLLKKGYLSFLIPSSLVDHLYLLPYENLLTEDETTISDDVDIARDVICLIKCLRLIEESVTVDMSVIMEMSCYNLQSPEKAAEQILEDMITIDVENVMEDICSKLQEIRNPIHAIGLLIREMDYETEVEMEKGFNPAQPLNIRMNLTQLYGSNTAGYIVCRGVHKIASTRFLICRDLLILQQLLMRLGDAVIWGTGQLFQAQQDLLHRTAPLLLSYYLIKWGSECLATDVPLDTLESNLQHLSVLELTDSGALMANRFVSSPQTIVELFFQEVARKHIISHLFSQPKAPLSQTGLNWPEMITAITSYLLQLLWPSNPGCLFLECLMGNCQYVQLQDYIQLLHPWCQVNVGSCRFMLGRCYLVTGEGQKALECFCQAASEVGKEEFLDRLIRSEDGEIVSTPRLQYYDKVLRLLDVIGLPELVIQLATSAITEAGDDWKSQATLRTCIFKHHLDLGHNSQAYEALTQIPDSSRQLDCLRQLVVVLCERSQLQDLVEFPYVNLHNEVVGIIESRARAVDLMTHNYYELLYAFHIYRHNYRKAGTVMFEYGMRLGREVRTLRGLEKQGNCYLAALNCLRLIRPEYAWIVQPVSGAVYDRPGASPKRNHDGECTAAPTNRQIEILELEDLEKECSLARIRLTLAQHDPSAVAVAGSSSAEEMVTLLVQAGLFDTAISLCQTFKLPLTPVFEGLAFKCIKLQFGGEAAQAEAWAWLAANQLSSVITTKESSATDEAWRLLSTYLERYKVQNNLYHHCVINKLLSHGVPLPNWLINSYKKVDAAELLRLYLNYDLLEEAVDLVSEYVDAVLGKGHQYFGIEFPLSATAPMVWLPYSSIDQLLQALGENSANSHNIALSQKILDKLEDYQQKVDKATRDLLYRRTL
B3: NUP85 (protein, UniProt Q9BW27 1-656, looked up)
Nuclear pore complex protein …: MEELDGEPTVTLIPGVNSKKNQMYFDWGPGEMLVCETSFNKKEKSEMVPSCPFIYIIRKDVDVYSQILRKLFNESHGIFLGLQRIDEELTGKSRKSQLVRVSKNYRSVIRACMEEMHQVAIAAKDPANGRQFSSQVSILSAMELIWNLCEILFIEVAPAGPLLLHLLDWVRLHVCEVDSLSADVLGSENPSKHDSFWNLVTILVLQGRLDEARQMLSKEADASPASAGICRIMGDLMRTMPILSPGNTQTLTELELKWQHWHEECERYLQDSTFATSPHLESLLKIMLGDEAALLEQKELLSNWYHFLVTRLLYSNPTVKPIDLHYYAQSSLDLFLGGESSPEPLDNILLAAFEFDIHQVIKECSIALSNWWFVAHLTDLLDHCKLLQSHNLYFGSNMREFLLLEYASGLFAHPSLWQLGVDYFDYCPELGRVSLELHIERIPLNTEQKALKVLRICEQRQMTEQVRSICKILAMKAVRNNRLGSALSWSIRAKDAAFATLVSDRFLRDYCERGCFSDLDLIDNLGPAMMLSDRLTFLGKYREFHRMYGEKRFADAASLLLSLMTSRIAPRSFWMTLLTDALPLLEQKQVIFSAEQTYELMRCLEDLTSRRPVHGESDTEQLQDDDIETTKVEMLRLSLARNLARAIIREGSLEGS
B4: TPP1 (protein, UniProt O14773 196-563, looked up)
Tripeptidyl-peptidase 1: LHLGVTPSVIRKRYNLTSQDVGSGTSNNSQACAQFLEQYFHDSDLAQFMRLFGGNFAHQASVARVVGQQGRGRAGIEASLDVQYLMSAGANISTWVYSSPGRHEGQEPFLQWLMLLSNESALPHVHTVSYGDDEDSLSSAYIQRVNTELMKAAARGLTLLFASGDSGAGCWSVSGRHQFRPTFPASSPYVTTVGGTSFQEPFLITNEIVDYISGGGFSNVFPRPSYQEEAVTKFLSSSPHLPPSSYFNASGRAYPDVAALSDGYWVVSNRVPIPWVSGTSASTPVFGGILSLINEHRILSGRPPLGFLNPRLYQQHGAGLFDVTRGCHESCLDEEVEGQGFCSGPGWDPVTGWGTPNFPALLKTLLNP
B5: SDCCAG1 (protein, UniProt O60524 1-1076, looked up)
Ribosome quality control …: MKSRFSTIDLRAVLAELNASLLGMRVNNVYDVDNKTYLIRLQKPDFKATLLLESGIRIHTTEFEWPKNMMPSSFAMKCRKHLKSRRLVSAKQLGVDRIVDFQFGSDEAAYHLIIELYDRGNIVLTDYEYVILNILRFRTDEADDVKFAVRERYPLDHARAAEPLLTLERLTEIVASAPKGELLKRVLNPLLPYGPALIEHCLLENGFSGNVKVDEKLETKDIEKVLVSLQKAEDYMKTTSNFSGKGYIIQKREIKPSLEADKPVEDILTYEEFHPFLFSQHSQCPYIEFESFDKAVDEFYSKIEGQKIDLKALQQEKQALKKLDNVRKDHENRLEALQQAQEIDKLKGELIEMNLQIVDRAIQVVRSALANQIDWTEIGLIVKEAQAQGDPVASAIKELKLQTNHVTMLLRNPYLLSEEEDDDVDGDVNVEKNETEPPKGKKKKQKNKQLQKPQKNKPLLVDVDLSLSAYANAKKYYDHKRYAAKKTQKTVEAAEKAFKSAEKKTKQTLKEVQTVTSIQKARKVYWFEKFLWFISSENYLIIGGRDQQQNEIIVKRYLTPGDIYVHADLHGATSCVIKNPTGEPIPPRTLTEAGTMALCYSAAWDARVITSAWWVYHHQVSKTAPTGEYLTTGSFMIRGKKNFLPPSYLMMGFSFLFKVDESCVWRHQGERKVRVQDEDMETLASCTSELISEEMEQLDGGDTSSDEDKEEHETPVEVELMTQVDQEDITLQSGRDELNEELIQEESSEDEGEYEEVRKDQDSVGEMKDEGEETLNYPDTTIDLSHLQPQRSIQKLASKEESSNSSDSKSQSRRHLSAKERREMKKKKLPSDSGDLEALEGKDKEKESTVHIETHQNTSKNVAAVQPMKRGQKSKMKKMKEKYKDQDEEDRELIMKLLGSAGSNKEEKGKKGKKGKTKDEPVKKQPQKPRGGQRVSDNIKKETPFLEVITHELQDFAVDDPHDDKEEQDLDQQGNEENLFDSLTGQPHPEDVLLFAIPICAPYTTMTNYKYKVKLTPGVQKKGKAAKTALNSFMHSKEATAREKDLFRSVKDTDLSRNIPGKVKVSAPNLLNVKRK
B6: NUP54 (protein, UniProt Q7Z3B4 1-507, looked up)
Nucleoporin p54: MAFNFGAPSGTSGTAAATAAPAGGFGGFGTTSTTAGSAFSFSAPTNTGTTGLFGGTQNKGFGFGTGFGTTTGTSTGLGTGLGTGLGFGGFNTQQQQQTTLGGLFSQPTQAPTQSNQLINTASALSAPTLLGDERDAILAKWNQLQAFWGTGKGYFNNNIPPVEFTQENPFCRFKAVGYSCMPSNKDEDGLVVLVFNKKETEIRSQQQQLVESLHKVLGGNQTLTVNVEGTKTLPDDQTEVVIYVVERSPNGTSRRVPATTLYAHFEQANIKTQLQQLGVTLSMTRTELSPAQIKQLLQNPPAGVDPIIWEQAKVDNPDSEKLIPVPMVGFKELLRRLKVQDQMTKQHQTRLDIISEDISELQKNQTTSVAKIAQYKRKLMDLSHRTLQVLIKQEIQRKSGYAIQADEEQLRVQLDTIQGELNAPTQFKGRLNELMSQIRMQNHFGAVRSEERYYIDADLLREIKQHLKQQQEGLSHLISIIKDDLEDIKLVEHGLNETIHIRGGVFS

Assays:
[1] = test system: Hsp90 complexes in K562 cell extract; assay: Nano-LC-MS/MS of PU-beads pull-downs; type: binding; details: protein identified in PU-beads pull-down of K562 cell extract, QSTAR-Elite QTof MS
How it was run: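 Lysates pre-cleared overnight at 4 °C with control beads, then pulled down with PU-beads or control beads; eluted proteins (2% SDS boil) gel-separated and analysed by nano LC-MS/MS on a QTof. Mascot identification (p<0.05), spectral counts and sequence coverage evaluated in Scaffold.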

[2] = test system: Hsp90 complexes in Mia-PaCa-2 cell extract; assay: Nano-LC-MS/MS of PU-beads pull-downs; type: binding, human; details: protein identified in PU-beads pull-down of Mia-PaCa-2 cell extract; QSTAR-Elite QTof MS
How it was run: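 Lysates pre-cleared overnight at 4 °C with control beads underwent PU-bead pull-down; bound proteins were SDS-eluted, gel-separated, digested and analyzed by nano-LC-MS/MS on a QTof. Identifications used significance p<0.05, 0.4 Da tolerances and one missed cleavage; unique peptide (spectral) counts and sequence coverage were reported.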

Molecule	Number of Assigned Spectra, K562 Prep 1 [1]	Number of Assigned Spectra, K562 Prep 2 [1]	Number of Assigned Spectra, Mia-Paca 2 [2]
B1	5	1	2
B2	13	1	0
B3	14	2	0
B4	4	1	1
B5	2	2	3
B6	1	7	0

From patent publication US20220074941A1, “HSP90 COMBINATION THERAPY” (Sloan-Kettering Institute for Cancer Research, priority 2011, published 2022)
